Here are results for 50 sequences from patent US20230020362A1, “INFECTIOUS DISEASE VACCINES” (priority 2015, published 2023).

Targets include A*02:01 (Homo sapiens, UniProt P04439, D140Y/D185E/D98H/E176V/E277Q/G131W/G231S/I119V/I121R/I166T/I218V/L300P/L318F/N151K/N90K/P208A/P217A/Q86G/Q94H/R138H/R169H/T345S); B*27:05 (Homo sapiens, UniProt P01889, D138H/D201E/E176V/E204Q/G107R/H137Y/K202T/N104T/N87E/Q56L/Q94K/R106L/R155S/R180L/S101D/S121N/S48T/Y140D/Y33H/Y91C); A*11:01 (Homo sapiens, UniProt P04439, A114D/D185E/E176A/F33Y/L180Q/S129P/T187R); A*24:02 (Homo sapiens, UniProt P04439, D101N/D140Y/D185E/E176V/E190D/F33S/G103R/G107R/I119L/I121M/I306V/K335N/L105A/L180Q/L300P/N151K/N90K/Q86E/Q94H/R106L/R138H/R89G/T104I/T345S/V100E/W191G/Y123F); A*03:01 (Homo sapiens, UniProt P04439); B*07:02 (Homo sapiens, UniProt P01889); A*01:01 (Homo sapiens, UniProt P04439, A114D/A174V/A182V/D101N/D185E/E176A/E190D/L180R/Q94H/R68K/S129P/T187R/V100A/V91M/W191G).

Assay in all cases: ProImmune REVEAL binding assay
The next experiment concerns the target T1, H-2Kb (Mus musculus, UniProt P01901).
T1 sequence (P01901 22-295 limits assumed): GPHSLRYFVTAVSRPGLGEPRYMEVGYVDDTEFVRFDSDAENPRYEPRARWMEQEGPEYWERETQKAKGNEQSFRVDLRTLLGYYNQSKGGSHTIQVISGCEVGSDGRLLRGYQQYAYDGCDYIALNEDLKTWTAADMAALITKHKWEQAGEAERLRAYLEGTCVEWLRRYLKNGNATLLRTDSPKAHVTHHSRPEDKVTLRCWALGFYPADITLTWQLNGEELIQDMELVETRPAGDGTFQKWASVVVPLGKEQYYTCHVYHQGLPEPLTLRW
T1 sequence (P01887 21-119 partner): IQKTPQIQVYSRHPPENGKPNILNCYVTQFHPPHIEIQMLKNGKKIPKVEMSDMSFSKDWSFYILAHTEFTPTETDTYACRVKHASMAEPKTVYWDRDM

Take AISGDDCVV: in the experiment with A*02:01, the “REVEAL® score at 0 h” value turned out to be 91.1.

For the sequence AMTDTTPFG, at A*02:01, the “REVEAL® score at 0 h” value worked out at 91.9.

With ARGYISTRV, the “REVEAL® score at 0 h” value in the experiment with B*27:05 is reported as 125.3.

As to ATFTMRLLS, the “REVEAL® score at 0 h” value in the experiment with A*11:01 came out at 58.5; with H-2Kb, 55.6.

Regarding CHATFTMRL, the “REVEAL® score at 0 h” value is on record as 75.9 with A*24:02 and 60.3 in the experiment with H-2Kb.

With CVYNMMGKR, the “REVEAL® score at 0 h” value on A*03:01 was determined as 81.6; on A*11:01, 113.2.

As to FKLTYQNKV, in the experiment with B*27:05, the “REVEAL® score at 0 h” value is 53.7.

As for FKPGTSGSP, the “REVEAL® score at 0 h” value with B*07:02 is 50.4; in the experiment with H-2Kb, 45.7.

As for GEAAAIFMT, the “REVEAL® score at 0 h” value with A*24:02 was found to be 58.9; with A*11:01, 50.3; in the experiment with A*02:01, 74.3.

GLYGNGVVT: the “REVEAL® score at 0 h” value with A*02:01 is recorded as 87.7.

In the case of GQQRVFKEK, the “REVEAL® score at 0 h” value on A*03:01 came to 59.6; at A*11:01 it was 85.5; on A*02:01, 47.1; on B*27:05 it was 95.4.

For GTYGLNTFT, the “REVEAL® score at 0 h” value with A*11:01 stood at 63.6.

For HATFTMRLL, the “REVEAL® score at 0 h” value with H-2Kb turned out to be 69.5.

For HTMWHVTRG, the “REVEAL® score at 0 h” value on A*11:01 is reported as 56.3.

On to HWTEAKMLL, for which the “REVEAL® score at 0 h” value with A*24:02 is 103.2.

As for IPERSWNSG, in the experiment with B*07:02, the “REVEAL® score at 0 h” value amounted to 45.2.

Regarding ISGDDCVVK, the “REVEAL® score at 0 h” value in the experiment with A*11:01 is on record as 88.7.

For the sequence IVDLMCHAT, in the experiment with A*02:01, the “REVEAL® score at 0 h” value came out at 62.7.

On to KLTYQNKVV, for which the “REVEAL® score at 0 h” value with A*02:01 amounted to 92.3.

Take KQWFLDLPL: the “REVEAL® Score” value in the experiment with A*02:01 is given as 86.0.

Consider LAPTRVVAA, for which the “REVEAL® score at 0 h” value with H-2Kb is 102.5.

With LGCGRGGWS, the “REVEAL® score at 0 h” value at A*24:02 turned out to be 74.8.

As for LLCDIGESS, at A*02:01, the “REVEAL® score at 0 h” value came out at 93.9.

In the case of LMCHATFTM, the “REVEAL® score at 0 h” value is 99.5 in the experiment with A*24:02, 72.9 in the experiment with A*02:01, 98.2 with B*27:05 and 59.0 in the experiment with H-2Kb.

As for LMRRGDLPV, the “REVEAL® score at 0 h” value came out at 178.9 with B*07:02 and 82.3 with A*02:01.

In the case of LMYFHRRDL, the results for the “REVEAL® score at 0 h” value with B*07:02, in the experiment with A*02:01 and with H-2Kb were 119.6, 97.8 and 54.9, respectively.

Regarding LSRNSTHEM, the entries for the “REVEAL® score at 0 h” value with B*07:02 and with H-2Kb were 124.5 and 51.1, respectively.

MAMTDTTPF: the “REVEAL® score at 0 h” value is listed as 51.3 at A*24:02 and 117.4 on B*07:02.

Turning to MCHATFTMR, the figures for the “REVEAL® score at 0 h” value in the experiment with A*03:01 and with A*11:01 were 86.8 and 91.0, respectively.

As for MGEAAAIFM, in the experiment with A*02:01, the “REVEAL® score at 0 h” value is 50.6.

As to MWHVTRGAV, the “REVEAL® score at 0 h” value with A*02:01 amounted to 62.7.

As for NMMGKREKK, the “REVEAL® score at 0 h” value on A*11:01 was 77.9.

In the case of PERVILAGP, the “REVEAL® score at 0 h” value with B*07:02 is 56.1.

Regarding PLSRNSTHE, the “REVEAL® score at 0 h” value with B*07:02 came out at 65.0.

With QQRVFKEKV, the “REVEAL® score at 0 h” value with H-2Kb stood at 63.4.

Consider RQWFFDLPL, for which the “REVEAL® Score” value with A*02:01 is given as 80.5.

Turning to RRGDLPVWL, the “REVEAL® score at 0 h” value in the experiment with B*27:05 was determined as 144.8.

Take SRNSTHEMY: the “REVEAL® score at 0 h” value with B*07:02 came out at 52.0.

TLLCDIGES: the “REVEAL® score at 0 h” value on A*02:01 is 63.9.

Consider TMWHVTRGA, for which the “REVEAL® score at 0 h” value at A*02:01 turned out to be 112.0.

In the case of TPFGQQRVF, the “REVEAL® score at 0 h” value at B*07:02 is reported as 112.7.

As to TTDISEMGA, the “REVEAL® score at 0 h” value on A*01:01 stood at 68.4.

Consider TVWFVPSIK, for which the “REVEAL® score at 0 h” value on A*11:01 stood at 92.2.

For VGTYGLNTF, the “REVEAL® score at 0 h” value with A*24:02 is on record as 96.0.

On to VVAAEMEEA, for which the “REVEAL® score at 0 h” value in the experiment with A*02:01 was found to be 92.2.

Regarding VYNMMGKRE, the “REVEAL® score at 0 h” value at A*11:01 was 62.5.

Regarding WTEAKMLLD, the “REVEAL® score at 0 h” value with A*24:02 is given as 94.7.

On to YFHRRDLRL, for which, in the experiment with A*24:02, the “REVEAL® score at 0 h” value came out at 87.5.

As to YGLNTFTNM, the “REVEAL® score at 0 h” value in the experiment with H-2Kb came out at 75.4.

Take YNMMGKREK: the “REVEAL® score at 0 h” value at A*11:01 is on record as 80.9.
